# Experiment: yeast display, Sf9 membrane polyspecificity reagent, FACS + sequencing; frameworks hold sequencing errors
# Summary of the method: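 Synthetic nanobody libraries on Saccharomyces cerevisiae BJ5465 were galactose-induced for 36–48 hours, stained 1 hour at 4 °C with 10% biotinylated, detergent-solubilized Sf9 membrane reagent and enriched on streptavidin microbeads. FACS then separated cells into low and high (top ~1%) gates by anti-HA (expression) and streptavidin (reagent binding) fluorescence. Genes were colony-PCR amplified, MiSeq 2 × 250 sequenced and CDR-length filtered. A clone's polyreactivity label is that of its gate of origin.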
row,Sequence,polyreactivity (PSR sort gate)
1,QVQLVETAGGLVQAGASLRLSSAASGITFAYYAMGWYRQAPAKERELVAAISSSGGSTYYADSVKGRFTISRDNAKNTVYLQLNSLNPEDTAVYYCAVDYSYWVEYWGLGTQVTVSS,high polyreactivity
2,QVQLVETAGGLVQAGGSLRLSSAASGRTFTLNAMGWYRQAPGKERELVATISRRGGSTYYADSVKGRFTISRDNAKNTVYLQMNSLNPEDTAVYYCNAGSSVLKYDYWGQGTEVTVSS,low polyreactivity
3,QVQLVETGGALVQAGGSLRLSCAASGYTFYRYAMGWYRQATGKERELVAAISYSGGRTYYADSVKGRFTISCDIAKNTVYLQMNSLKPEDTAVYYCNARASYGHQGRLGYARLYYWGQGTQVTVSS,high polyreactivity
4,QVQLVETGGCLVQAGGSLRLSCAASGFTFRGYAMGWYRQAPGKERELVAAITAGGGSTSYADSVKGRFTISRDNAKNTVYLLMNSLKPEDTAVYYCAKDRYYGYFRSRSDYWGQGTQVTVSS,high polyreactivity
5,QVQLVETGGCLVQAGGSLRLSCAASGSTLHYYAMGWSRQAPGKQREFVAGISRYGGRTYNADSVKGRFTISRDNAKNTVYLQMNSLKPEDTAVYYCNAVLVGYRPYREFDHWGQGTQVTVSS,high polyreactivity
6,QVQLVETGGGIVQAGGSLRLSCAAYGRILWYYAMGWYRQAPGKERELVAAITSGGSTYYADSVKGRFTLSRDIAKNTVYLQMNSLKPEDTAVYYCNAYYTYRFNYWGQGTQVTVSS,high polyreactivity
7,QVQLVETGGGLDQAGGSLRLRCAASGSIFLIYGMGWYRQAPGKERELDAAITARCGSTYYADSVKGRFTISRDNAKNTVYLLMNSLKPEDTAVYYCAADEYEALGKFQPYQFDYWGQGTQVTVSS,low polyreactivity
8,QVQLVETGGGLDQAGGSLRLSCAASGRTSRYAMGWYRQAPGKEMELVAAISRNGRTTSYADSVKGRFTISRDNAKNTVYLQKNSLKPEDTAVDYCNAYSAFVPPTRGYYWGQGTQVTVTS,high polyreactivity
9,QVQLVETGGGLFHAGGSLRLSCAASGRIFVGYAMGWYIQAPGKERELVAAINSGGRTNYADSVKGRFTISRYNAKNNVYLQMNSLKPEDTAVYYCAATLRPYSSFPNRYGYWGQGTQVTVSS,low polyreactivity
10,QVQLVETGGGLVHAGGSLRISCAASGLTFRGNAMGWYRQAPGKERELVATISSGGITNYADSVKGRFTISRDNAKNTVYLQMNSLKPEDTAVYYCAADWFVHKPRYQNSFDYWGQGTQVTVSS,low polyreactivity
11,QVQLVETGGGLVHAGGSLRLSCAASGSIFGYYTMGWYIQAPGKERELFAAITYSGGSTYYADSVKGRFTISRDNAKNTVYLQMNSLKPDDTAVYYCNAKSAAHRYVRRHDYWGQGTQVTVSS,low polyreactivity
12,QVQLVETGGGLVKAGGSLRLSCAASGRTFGKYAMGWYRQETGKESELVAAITTRVVITYYADSVKGRFTISRDNAKNTVYLQMNSLKPEDTAVYYCAADPEKNYRPFNHYYYWGQGTQVTVSS,low polyreactivity
13,QVQLVETGGGLVQAGCSLRLSCAASGSIFSYYAMGWSRQAPGKERELVAGITGSGGSTYADSVKGRFTISRDNAKNTVYLQMNSLKPEDTAVYYCAADLQRYWWWYEYWGQGTQVTVSS,high polyreactivity
14,QVQLVETGGGLVQAGGILRLSCAASGSTFGYNAMGWYRQAPGKERELVASITWSSGSTYYADSVKGRFTISRDNAKNTVYLQMNSLKPEDSAVYYCYAKRFRHYGGYYYWGQGTQVTVSS,low polyreactivity
15,QVQLVETGGGLVQAGGRLRLSCAASGSTFKNNAMGWSRQAPGKEREFVAGITRRGTSTYYADSVKGRFTISRDNAKNTVYLQMNSLKPEDTAVYYCNARLRARSTIKLDYWGQGTQVTVSS,high polyreactivity
16,QVQLVETGGGLVQAGGSHRLSCAASGLTFYTYAMGWYRQAPGKERELVAAISTNGGSKYYADSVKGRFTISRDNAKNTVYLQRNCLKPEDTAVYYCAIEGGTYRIFNYWGQGTQVTVSS,low polyreactivity
17,QVQLVETGGGLVQAGGSHRLSCAASGSTFDAYAMGWYRQAPGKETELVAGISIVGSTNYADSVKGRFTISRDNAKNTVYLKMNSLKPEDTAVLYCAADRDWQYSFRPSVYGYDYVYWGQGTQVTVSS,low polyreactivity
18,QVQLVETGGGLVQAGGSLRLSCAASGFIFPGNMGWDRQAPGKDRELVAAISWSGGSTRYADSVKGRFTISRDNAKNTVYLQMNSLKPEDTAVYYCAASLSGKRFTKRYYWGQGTQVTVSS,high polyreactivity
19,QVQLVETGGGLVQAGGSLRLSCAASGFIFVLNAMGWDRQAPGKEMEFVAAITRSGGSTYYADSVKGRFTISRDNAKNNVYLPMNSLKPEVTAVYYCAVLYHSRDRYTYRDEDYWGQGTQVTVSS,low polyreactivity
20,QVQLVETGGGLVQAGGSLRLSCAASGFIGSNTMGWYRQAPGKERELVAAISWSGGSTYYADSVKGRFTISRDNAKNTVYLQMNSLKPEDSAVYYCAARRNSRARRTFGYWGQGTQVSVSS,high polyreactivity
21,QVQLVETGGGLVQAGGSLRLSCAASGFIQSGYAMGWYRQAPGKERELVATITWRDGSTYYADSVKGRYTISRDNAKNTVYLQKNSLKPEDTEVYYCAVAAYSRRSPYYHYNYWGQGTQVTVSS,high polyreactivity
22,QVQLVETGGGLVQAGGSLRLSCAASGFTFRFYAMGWSRQPPGKERELVAAISRGGSTYYADSVKVRFTISRYNEKNTVYLQMNSLKPEDTAVYYCAKRGRYGGYWGQGTQVTVSS,high polyreactivity

row,Sequence,polyreactivity (PSR sort gate)
1,QVQLVETGGGLVQAGGSLRLSCAASGFTLYYYARGWYRQAPGKERELVAAITARGVSTYADSVKGRFTISRDNAKNTVYLQMNSLKPEDTAVYYCAADRRYNVIGEFGYWGQGTQVTVSS,low polyreactivity
2,QVQLVETGGGLVQAGGSLRLSCAASGGIFVANAMGWYRQAPGKERELVAAISKRGGSTTYADSVKGRFTISRDNAKHTVYLQMNRLKPEDTAVYYCAKVVSPVYLYPSGYDYWGQGTQVTVSS,low polyreactivity
3,QVQLVETGGGLVQAGGSLRLSCAASGITLYFYAMGWSRQAPGKEREMVAGISGSVGSTHYADSVKGRFTISRDNAKNTVYSQMNSLKPEDTAVYYCDAAQVGYYVASVTYGYWGQGTQVTVSS,high polyreactivity
4,QVQLVETGGGLVQAGGSLRLSCAASGLIFTINAMGWYRQAPGKERELVAAITNGDSTHYADSVKGRFTISRDNAKNTVYLQMNSLKPEDTAVYYCAARSYTYYGLRFGYWGQGTQVTVSS,high polyreactivity
5,QVQLVETGGGLVQAGGSLRLSCAASGLTFYYYTMGWYRQAPGKERELVAAITSGGSTYYADSVKGRFTISRDNAKNTVYLQMNSLKPEDTAVYYCAAVPSRYGRYRYYYWGQGTQVTVSS,high polyreactivity
6,QVQLVETGGGLVQAGGSLRLSCAASGNTFGDYAMGWYRQAPGKERELVAAISRSGGSTSYADSVKGRFTISRDNAKNTVYLQMNSLKPADTAVYYCAAYWQRFGYDYWGQGTQVTGSS,low polyreactivity
7,QVQLVETGGGLVQAGGSLRLSCAASGNTFKYYAMGWYRQAPGKERELVAAISYSGGSTYYADSVKGRFTISRDNAKNTVYLQMNSLKPEDTAVYYCAADLDSERYYWGQGTQVTVSS,low polyreactivity
8,QVQLVETGGGLVQAGGSLRLSCAASGRIFPFYAMGWYRQAPGKERELVAAISWNGGSTFYADSVKGRFTISRDNAKNTVYLQMHSLKPEDTAVYYCNADFRPAYTYDYWGQGTQVTVSS,low polyreactivity
9,QVQLVETGGGLVQAGGSLRLSCAASGRIFTYYAMGWYRQAPGKERELVAGISSRGTRTYYADSVKGRFTISRDNAKNTVYLQMNSLKPDDTAVYYCAAYPQFWYWDYNYWGQGTQVTVSS,high polyreactivity
10,QVQLVETGGGLVQAGGSLRLSCAASGRIFYYYAMGWYRQAPGKERELVAAITRGGGTYYADSVKGRFTISRDNAKNTVYLQMYSLKPEDTAVYYCAKRGPPESHHPYRYRFDYWGQGPQVTVSS,low polyreactivity
11,QVQLVETGGGLVQAGGSLRLSCAASGRIIDTYAMGWYRQAPGKERELVAAITRRGGSTYYADSVKGRFTISRDNAKNTVYLQMNSLKPEDTAVYYCAKSLVNRHYDYWGQGTQVTVSS,low polyreactivity
12,QVQLVETGGGLVQAGGSLRLSCAASGRTFKFYAMGWYRQAPGKEREFVAVINRSGVNTHYADSVKVRFTISRDNAKNTVYLQMNSLKPEDTAVYYCAKYVYPLDHVAGYDYWGQGTQVTVSS,low polyreactivity
13,QVQLVETGGGLVQAGGSLRLSCAASGRTFSGYAMGWSRQAPGKERELVASITWSGGSTYYADSVKGRFTISRDNAKNTVYLQMNSLKPDDTAVYYCARDSPRGRVGFNYWGQATQVTVSS,low polyreactivity
14,QVQLVETGGGLVQAGGSLRLSCAASGRTIVYYDMGWYRQAPGKEREFVSTITSSGGSTYYADSVKGRFTISRDNAKNTVYVQMNSLKPEDTAVYYCAAYPYIRYSKVSKYYYWGQGTQVTVSS,high polyreactivity
15,QVQLVETGGGLVQAGGSLRLSCAASGRTLYYYAMGWYRQAPGKERELVAAITRSGGSTYYADSVKGRFTISRDNAKNTVYLQMNSLKPEDTEVYYCNKYGYKGGVGYDYWGQGTQVTVSS,high polyreactivity
16,QVQLVETGGGLVQAGGSLRLSCAASGSIFASYAMGWYRQAPGKERELVAAITTSGGRTYYADSVKGRFTISRDNAKNTVYLQMNSLKPEDTAVYYCAVRYRGYGYDWGQGTQVTVSS,high polyreactivity
17,QVQLVETGGGLVQAGGSLRLSCAASGSIFERYAMGWYRQAPGKEREFVATITSGGGRTYYADSVKGRFTISRDNAKNTVYLQMNSLKPEDTAVYYCAAASYRRQPFNYWGQGTQVTVSS,high polyreactivity
18,QVQLVETGGGLVQAGGSLRLSCAASGSIFEYNGMGWYRQAPGKERELVAAITTTGTTDYADSVKGRFTISRDNAKNTVYLLMNSLKPEDTAVYYCAADYTYYYKGEYDYWGQGTQVTVSS,low polyreactivity
19,QVQLVETGGGLVQAGGSLRLSCAASGSIFGGYAMGWYRQAPGKERELVAGITRSGGSTYYADSVKGRFTISRDNAKNTVYLQMNSLKPEDTAVYYCAVEIQFYRSPRKVRSYDYWGQGTQVTVSS,low polyreactivity
20,QVQLVETGGGLVQAGGSLRLSCAASGSIFITYLMGWNRQAPGKERELVDGISRSGGSTYYADSVKGRFTISRDNAMNTVYLQMNSLKPEDTAVYYCAAFFLRRPGSSGLRLLGQGTQVTVSS,high polyreactivity
21,QVQLVETGGGLVQAGGSLRLSCAASGSIFTRYVMGWYRQAPGKERELVAAISRSSGRTYYADSVKGRFTISRDNAKNTVYLQMNSLKPEDTAVYYCAAYAVESYKYDYWGQGTQVTVSS,high polyreactivity

# Reference: the nanobody polyreactivity screen of Harvey et al. (2022)
